Source: PMC9597087

Molecular target: microtubules (human (endogenous in U2-OS)) (UniProt Q71U36)
Assay: FRAP (fluorescence recovery after photobleaching); living U2-OS cells 48h after transfection, interphase, no STLC; 1.5 um^2 areas bleached, spinning disk confocal; traces analysed with easyFRAP, normalised to pre-bleaching intensity

mobility fraction (FRAP): 0.06
Substance: GFP-tagged Eg5(T107N) (from UniProt P52732 1-1056) (natural protein)
